Laboratory results as given in PMC13161223, “Molecular anatomy of PLK1 master docking motifs” (Nature Communications, 2026).
Non-standard residues stand in square brackets, D forms with d. No end group written: not given here. pT = C[C@@H](OP(=O)(O)O)[C@H](N)C(=O)O; MBP = maltose-binding protein

B1: ^MBPCENP-U^58-114 (6xHis-MBP-TEV-CENP-U^58-114), unphosphorylated (domain or fragment, human, UniProt Q71F23 58-114, looked up)
chain: {6xHis-MBP-TEV}-LGENEKDEETYETFDPPLHSTAIYADEEEFSKHCGLSLSSTPPGKEAKRSSDTSGNE
notes: The plasmids paragraph speaks of expression in insect cells, the purification paragraph of E. coli; source: E. coli BL21 (DE3), purified (HisTALON, Resource Q, SEC); not shown: MBP, N-terminal, kept
B2: ^MBPCENP-U^58-83 (6xHis-MBP-TEV-CENP-U^58-83), unphosphorylated (domain or fragment, human, UniProt Q71F23 58-83, looked up)
chain: {6xHis-MBP-TEV}-LGENEKDEETYETFDPPLHSTAIYAD
notes: CENP-U (PBIP1), human, residues 58-83 (Motif 1); also called Motif 1; unphosphorylated Motif 1; source: E. coli BL21 (DE3), purified (HisTALON, Resource Q, SEC); not shown: MBP, N-terminal, kept
B3: ^MBPCENP-U^58-83/F71A/pT78 (domain or fragment, human, UniProt Q71F23 58-83, looked up)
chain: LGENEKDEETYETADPPLHS[pT]AIYAD
modifications: also: N-terminal MBP fusion protein
notes: CENP-U (PBIP1), human, residues 58-83 (Motif 1); source: E. coli BL21 (DE3), purified; not shown: MBP, N-terminal, kept
B4: ^MBPCENP-U^58-83/Y68A/F71A/pT78 (domain or fragment, human, UniProt Q71F23 58-83, looked up)
chain: LGENEKDEETAETADPPLHS[pT]AIYAD
modifications: also: N-terminal MBP fusion protein
notes: as for B3
B5: ^MBPCENP-U^58-83/pT78 (domain or fragment, human, UniProt Q71F23 58-83, looked up)
chain: LGENEKDEETYETFDPPLHS[pT]AIYAD
modifications: also: N-terminal MBP fusion protein
notes: CENP-U (PBIP1), human, residues 58-83 (Motif 1); also called PLK1-phosphorylated ^MBPCENP-U^58-83; phosphorylated Motif 1; source: E. coli BL21 (DE3), purified; not shown: MBP, N-terminal, kept
B6: ^MBPCENP-U^58-114/pT78/F87A/T98V (domain or fragment, human, UniProt Q71F23 58-114, looked up)
chain: LGENEKDEETYETFDPPLHS[pT]AIYADEEEASKHCGLSLSSVPPGKEAKRSSDTSGNE
modifications: also: N-terminal MBP fusion protein
notes: source: E. coli BL21 (DE3), purified; phosphorylated in vitro with only PLK1; not shown: MBP, N-terminal, kept
B7: biotin-conjugated ^MBPCENP-U^58-114/pT78 (immobilised ligand of BLI) (domain or fragment, human, UniProt Q71F23 58-114, looked up)
chain: LGENEKDEETYETFDPPLHS[pT]AIYADEEEFSKHCGLSLSSTPPGKEAKRSSDTSGNE
modifications: not fully specified (N-terminus); also: N-terminal MBP fusion protein, C-terminal PLPETG tag ligated by sortase A to Gly4-biotin
notes: source: E. coli BL21 (DE3), purified; phosphorylated in vitro with PLK1; biotin-labelled with sortase A; not shown: MBP, N-terminal, kept; PLPETG peptide conjugated with Gly-Gly-Gly-Gly-Biotin, C-terminal, kept
B8: ^MBPCENP-U^84-114 F87A, phosphorylated with CDK1 (domain or fragment, human, UniProt Q71F23 84-114, looked up)
chain: EEEASKHCGLSLSS[pT]PPGKEAKRSSDTSGNE
modifications: also: N-terminal MBP fusion protein
notes: also called F87 to alanine mutant of Motif 2; source: E. coli BL21 (DE3), purified; phosphorylated in vitro with CDK1; not shown: MBP, N-terminal, kept

What was measured:
[1] = target: Biotin-conjugated ^MBPPBD (immobilised ligand of BLI) (human) (UniProt P53350); test: BLI; biotin-conjugated ^MBPPBD immobilised on streptavidin sensors, CENP-U variants as analyte; 25 °C, 20 mM HEPES pH 7.5, 2.5% glycerol, 300 mM NaCl, 0.1 mM TCEP, 0.3 g/L BSA, 0.05% Tween20; KD from koff/kon of the global fit
Biotin-conjugated ^MBPPBD (immobilised ligand of BLI) (human), sequence (P53350 345-603): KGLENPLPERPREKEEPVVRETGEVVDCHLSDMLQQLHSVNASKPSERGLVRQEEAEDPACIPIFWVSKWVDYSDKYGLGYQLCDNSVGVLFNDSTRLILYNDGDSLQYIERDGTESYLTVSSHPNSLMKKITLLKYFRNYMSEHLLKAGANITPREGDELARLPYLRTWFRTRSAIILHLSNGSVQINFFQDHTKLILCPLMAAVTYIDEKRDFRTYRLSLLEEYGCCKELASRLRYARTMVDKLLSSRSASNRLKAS

[2] = target: singly phosphorylated pT98 peptide of CENP-U (ITC) (human); test: ITC; phosphorylated CENP-U construct in the cell, ^MBPPBD in the syringe; 25 °C, 20 mM Hepes pH 7.5, 300 mM NaCl, 1 mM TCEP, 1% glycerol; one set of sites model
[3] = target: T1, ^MBPPBD (6xHis-MBP-TEV-PLK1^345-603) (human, UniProt P53350 345-603); test: SEC; analytical SEC, Superdex 200 5/150, 20 mM Bis-tris/HCl pH 6.5, 250 mM NaCl, 5% glycerol, 1 mM TCEP, 4 °C; PBD added 2:1 to the CENP-U variant (10 µM ^MBPPBD and 5 µM ^MBPCENP-U^58-114 in Fig. 1C); details: both partners purified
T1 construct: PLK1, human, residues 345-603 (Polo-box domain construct); The plasmids paragraph speaks of expression in insect cells, the purification paragraph of E. coli BL21 (DE3); TEV site between MBP and PLK1; source: E. coli BL21 (DE3), purified (HisTALON, SEC); not shown: MBP, N-terminal, kept
T1 sequence (P53350 345-603): as above

[4] = target: T2, Biotin-conjugated ^MBPPBD (immobilised ligand of BLI) (human, UniProt P53350 345-603, biotin (Gly-Gly-Gly-Gly-Biotin conjugated to the C-terminal PLPETG peptide by sortase A)); test: BLI; biotin-conjugated ^MBPPBD immobilised on streptavidin sensors, CENP-U variants as analyte; 25 °C, 20 mM HEPES pH 7.5, 2.5% glycerol, 300 mM NaCl, 0.1 mM TCEP, 0.3 g/L BSA, 0.05% Tween20; KD from koff/kon of the global fit; details: both partners purified
T2 construct: PLK1, human, residues 345-603 (Polo-box domain construct); As m1 with a C-terminal PLPETG peptide used for biotin labelling; held on streptavidin sensors; also called immobilized PBD; source: E. coli BL21 (DE3), purified (HisTALON, SEC), biotin-labelled with sortase A; not shown: MBP, N-terminal, kept; PLPETG peptide conjugated with Gly-Gly-Gly-Gly-Biotin, C-terminal, kept
T2 sequence (P53350 345-603): as above

[5] = target: T3, ^6HisPLK1^FL (6xHis-TEV-PLK1, full length) (human, UniProt P53350 1-603); test: BLI; biotin-conjugated phosphorylated ^MBPCENP-U^58-114 immobilised on streptavidin sensors, ^MBPPBD or ^6HisPLK1^FL as analyte; 25 °C, 20 mM HEPES pH 7.5, 2.5% glycerol, 300 mM NaCl, 0.1 mM TCEP, 0.3 g/L BSA, 0.05% Tween20; one site for pT78, two sites (KD1, KD2) for pT98 and pT78/pT98; details: both partners purified
T3 construct: PLK1, human, 603 residues, full length; also called full length PLK1; source: insect cells (plasmid from a previous study), purified (HisTALON, SEC); not shown: 6xHis, N-terminal, kept
T3 sequence (P53350 whole entry): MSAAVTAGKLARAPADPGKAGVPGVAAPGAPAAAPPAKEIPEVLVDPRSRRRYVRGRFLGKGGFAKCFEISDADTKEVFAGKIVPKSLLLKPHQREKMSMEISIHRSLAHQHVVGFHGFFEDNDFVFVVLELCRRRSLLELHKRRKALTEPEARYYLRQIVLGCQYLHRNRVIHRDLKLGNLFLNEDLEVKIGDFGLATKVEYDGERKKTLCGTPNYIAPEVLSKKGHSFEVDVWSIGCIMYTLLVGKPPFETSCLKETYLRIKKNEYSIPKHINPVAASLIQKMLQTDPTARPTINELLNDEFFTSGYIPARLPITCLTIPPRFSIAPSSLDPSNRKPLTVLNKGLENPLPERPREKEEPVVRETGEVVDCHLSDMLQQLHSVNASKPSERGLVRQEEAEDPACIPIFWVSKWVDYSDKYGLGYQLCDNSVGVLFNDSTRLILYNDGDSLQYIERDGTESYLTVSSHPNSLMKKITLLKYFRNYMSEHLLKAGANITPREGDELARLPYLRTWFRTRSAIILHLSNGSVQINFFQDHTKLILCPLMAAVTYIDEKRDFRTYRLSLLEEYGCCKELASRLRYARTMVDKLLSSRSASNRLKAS

[6] = target: T1, ^MBPPBD (6xHis-MBP-TEV-PLK1^345-603); test: as above; details: both partners purified
[7] = target: T1, ^MBPPBD (6xHis-MBP-TEV-PLK1^345-603); test: ITC; phosphorylated CENP-U construct in the cell, ^MBPPBD in the syringe; 25 °C, 20 mM Hepes pH 7.5, 300 mM NaCl, 1 mM TCEP, 1% glycerol; one set of sites model; details: both partners purified

Row | Kd [4] [nM] | koff [4] [s⁻¹] | kon [4] [M⁻¹ s⁻¹] | also measured | Molecule
1 | – | – | – | Kd [1]: 400 nM; koff [1]: 0.0028 s⁻¹; kon [1]: 7100 M⁻¹ s⁻¹ | ^MBPCENP-U^84-114/pT98 (from UniProt Q71F23 84-114) (domain or fragment)
2 | – | – | – | Kd [2]: 380 nM | ^MBPPBD (6xHis-MBP-TEV-PLK1^345-603) (from UniProt P53350 345-603) (domain or fragment)
3 | – | – | – | binding result [3]: binds | B1
4 | 10000 | 0.00028 | 28 | – | B2
5 | 88 | 0.0077 | 87000 | – | B3
6 | 230 | 0.011 | 47000 | – | B4
7 | 2.5 | 0.00034 | 140000 | – | B5
8 | 7.2 | 0.001 | 140000 | – | B6
9 | – | – | – | Kd [5]: 22 nM; koff [5]: 0.0033 s⁻¹; kon [5]: 150000 M⁻¹ s⁻¹; Kd [6]: 1.9 nM; koff [6]: 0.00052 s⁻¹; kon [6]: 280000 M⁻¹ s⁻¹ | B7
10 | – | – | – | binding result [3]: binds | B8
11 | – | – | – | Kd [7]: ~1.9 nM | LGENEKDEETYETFDPPLHS[pT]AIYAD (domain or fragment) [singly phosphorylated pT78 peptide of CENP-U (ITC)]
